# Measurements: paper PMC12669963, “PGAM5 cleavage and oligomerization equilibrates mitochondrial dynamics under stress by regulating DRP1 function” (Journal of Cell Science, 2025)
# B1: endogenous PGAM5 (natural protein, human (endogenous in HEK293 and U2OS), UniProt Q96HS1 1-289, looked up)
# chain: MAFRQALQLAACGLAGGSAAVLFSAVAVGKPRAGGDAEPRPAEPPAWAGGARPGPGVWDPNWDRREPLSLINVRKRNVESGEEELASKLDHYKAKATRHIFLIRHSQYHVDGSLEKDRTLTPLGREQAELTGLRLASLGLKFNKIVHSSMTRAIETTDIISRHLPGVCKVSTDLLREGAPIEPDPPVSHWKPEAVQYYEDGARIEAAFRNYIHRADARQEEDSYEIFICHANVIRYIVCRALQFPPEGWLRLSLNNGSITHLVIRPNGRVALRTLGDTGFMPPDKITRS
# notes: endogenous PGAM5; source: endogenous, HEK293 and U2OS lysate
# Target: the molecule itself
# Experiment: native gel or EMSA; native-PAGE of U2OS lysates (50 mM Tris-HCl pH 7.4, 150 mM NaCl, 0.5% Triton X-100), steady state or CCCP, immunoblot for endogenous PGAM5
protein,measurement,value
B1,stoichiometry N,2
